Blank lines part the entries; values can stand above or below the substance they belong to.
Target: Gα-interacting vesicle-associated protein (GIV), endogenous (human (endogenous in THP1)) (UniProt Q3V6T2)
Sequence of UniProt Q3V6T2 (Q3V6T2 whole entry): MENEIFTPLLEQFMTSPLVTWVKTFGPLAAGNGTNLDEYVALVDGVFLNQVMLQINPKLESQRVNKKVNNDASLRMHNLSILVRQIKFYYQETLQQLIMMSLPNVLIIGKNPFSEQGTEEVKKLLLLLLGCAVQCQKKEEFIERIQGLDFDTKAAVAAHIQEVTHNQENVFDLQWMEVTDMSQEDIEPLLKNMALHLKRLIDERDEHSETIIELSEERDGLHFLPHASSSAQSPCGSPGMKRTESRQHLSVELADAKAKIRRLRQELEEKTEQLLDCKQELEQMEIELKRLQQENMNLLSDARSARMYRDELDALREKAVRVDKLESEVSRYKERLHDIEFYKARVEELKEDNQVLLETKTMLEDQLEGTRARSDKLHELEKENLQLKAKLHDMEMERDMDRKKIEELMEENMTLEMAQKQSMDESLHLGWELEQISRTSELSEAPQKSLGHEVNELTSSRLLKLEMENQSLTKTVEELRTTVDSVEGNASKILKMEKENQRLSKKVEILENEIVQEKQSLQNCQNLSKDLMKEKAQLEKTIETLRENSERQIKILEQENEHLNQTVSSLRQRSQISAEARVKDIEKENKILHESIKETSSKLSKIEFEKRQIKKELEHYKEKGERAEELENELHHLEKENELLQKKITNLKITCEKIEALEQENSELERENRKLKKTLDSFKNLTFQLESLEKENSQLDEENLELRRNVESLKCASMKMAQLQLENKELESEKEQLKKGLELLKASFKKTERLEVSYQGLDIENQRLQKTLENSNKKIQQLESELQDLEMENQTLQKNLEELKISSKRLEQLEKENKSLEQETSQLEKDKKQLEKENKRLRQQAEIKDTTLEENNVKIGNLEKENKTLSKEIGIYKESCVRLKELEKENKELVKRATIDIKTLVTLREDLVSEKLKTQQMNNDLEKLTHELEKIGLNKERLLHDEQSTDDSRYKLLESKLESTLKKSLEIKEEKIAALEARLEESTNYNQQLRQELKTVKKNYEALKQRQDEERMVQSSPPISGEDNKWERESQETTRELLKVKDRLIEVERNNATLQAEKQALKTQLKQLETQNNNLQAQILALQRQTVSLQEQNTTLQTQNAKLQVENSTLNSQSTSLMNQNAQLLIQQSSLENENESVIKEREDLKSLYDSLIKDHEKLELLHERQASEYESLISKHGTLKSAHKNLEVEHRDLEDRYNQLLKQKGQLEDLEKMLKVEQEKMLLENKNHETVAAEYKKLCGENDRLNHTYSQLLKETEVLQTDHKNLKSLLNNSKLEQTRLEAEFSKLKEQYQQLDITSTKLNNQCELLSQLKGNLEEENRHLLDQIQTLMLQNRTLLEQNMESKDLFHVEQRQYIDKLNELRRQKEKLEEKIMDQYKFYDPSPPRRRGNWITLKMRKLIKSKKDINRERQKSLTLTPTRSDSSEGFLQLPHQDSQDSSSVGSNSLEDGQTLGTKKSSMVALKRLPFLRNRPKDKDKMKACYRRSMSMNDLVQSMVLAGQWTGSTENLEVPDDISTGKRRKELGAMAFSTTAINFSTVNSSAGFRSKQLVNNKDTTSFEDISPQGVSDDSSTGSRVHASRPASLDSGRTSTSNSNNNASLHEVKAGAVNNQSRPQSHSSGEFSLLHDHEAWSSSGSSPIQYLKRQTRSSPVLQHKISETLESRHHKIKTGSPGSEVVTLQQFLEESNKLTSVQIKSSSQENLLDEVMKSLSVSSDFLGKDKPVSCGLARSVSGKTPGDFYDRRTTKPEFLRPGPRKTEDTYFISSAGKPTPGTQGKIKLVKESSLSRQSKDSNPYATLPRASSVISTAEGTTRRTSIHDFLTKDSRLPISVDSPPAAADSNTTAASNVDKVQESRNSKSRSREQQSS

suppression by MDP pretreatment (10 μg/mL) of LPS (100 ng/mL)-induced NF-κB activation, luciferase reporter assay in HeLa cells with NOD2-1007fs: 20 % protection
Substance: HA-NOD2 1007fs (from UniProt Q9HC29 1-1040) (natural protein)

suppression by MDP pretreatment (10 μg/mL) of LPS (100 ng/mL)-induced NF-κB activation, luciferase reporter assay in HeLa cells with NOD2-WT: 65 % protection
Substance: HA-NOD2 (wild type) (from UniProt Q9HC29 1-1040) (natural protein)

suppression by MDP pretreatment (10 μg/mL) of LPS (100 ng/mL)-induced NF-κB activation, luciferase reporter assay in HeLa cells with NOD2 G908R: 7 % protection
Substance: HA-NOD2 G908R (from UniProt Q9HC29 1-1040) (natural protein)

suppression by MDP pretreatment (10 μg/mL) of LPS (100 ng/mL)-induced NF-κB activation, luciferase reporter assay in HeLa cells with NOD2 R702W: 45 % protection
Substance: HA-NOD2 R702W (from UniProt Q9HC29 1-1040) (natural protein)

— publication PMC12646664
